± gives the uncertainty stated by the source.
Assay: self-splicing fitness, log relative to wild type (ln ratio); higher = more splicing; Tetrahymena group I intron in knt gene, E. coli kanamycin selection, DiMSum; sequences stand for … in CUCUCU…GGAGGGAAAAGUUAUCAGGCAUGCACCUGGUAGCUAGUCUUUAAACCAAUAGAUUGCAUCGGUUUAAAAGGCAAGACCGUCAAAUUGCGGGAAAGGGGUCAACAGCCGUUCAGUACCAAGUCUCAGGGGAAACUUUGAGAUGGCCUUGCAAAGGGUAUGGUAAUAAGCUGACGGACAUGGUCCUAACCACGCAGCCAAGUCCUAAGUCAACAGAUCUUCUGUUGAUAUGGAUGCAGUUCACAGACUAAAUGUCGGUCGGGGAAGAUGUAUUCUUCUCAUAAGAUAUAGUCGGACCUCUCCUUAAUGGGAGCUAGCGGAUGAAGUGAUGCAACACUGGAGCCGCUGGGAACUAAUUUGUAUGCGAAAGUAUAUUGAUUAGUUUUGGAGUACUCGUGGUCG
Method in brief: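 Library with all eight P1ex-region intron nucleotides randomised, intron inside the knt kanamycin-resistance gene on pET-22b(+), in E. coli BL21(DE3). Cells grew overnight at 37°C or 30°C on LB agar with or without 25 μg/mL kanamycin (plus 100 μg/mL carbenicillin, 50 μM IPTG, 0.2% rhamnose), in six replicate transformations. Pooled colonies were amplicon-sequenced on Illumina HiSeq 2500. DiMSum fitness is the error-weighted combination of wild-type-normalised replicate fold changes, kanamycin versus none.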

Sequence	self-splicing fitness (ln) (30 °C)	self-splicing fitness (ln) (37 °C)
AUGAAGCAAUAUUACGGUGG	-1.87 ± 0.069	-1.92 ± 0.12
AUGAAGCAAUAUUACGGUUG	-0.993 ± 0.11	-1.49 ± 0.12
AUGAAGCAAUAUUACGUAAC	-2.45 ± 0.18	0.328 ± 0.16
AUGAAGCAAUAUUACGUAAG	-1.05 ± 0.057	-0.409 ± 0.083
AUGAAGCAAUAUUACGUCUA	0.344 ± 0.094	0.623 ± 0.11
AUGAAGCAAUAUUACGUGAC	-2.85 ± 0.13	-1.63 ± 0.15
AUGAAGCAAUAUUACGUUCA	0.00482 ± 0.072	0.318 ± 0.1
AUGAAGCAAUAUUACGUUCC	-0.618 ± 0.086	-0.0585 ± 0.11
AUGAAGCAAUAUUACGUUGA	-2.39 ± 0.1	-0.85 ± 0.12
AUGCAGCAAUAUUACGAAAC	-2.82 ± 0.46	-0.989 ± 0.27
AUGCAGCAAUAUUACGAGAG	-4.15 ± 0.27	-1.16 ± 0.12
AUGCAGCAAUAUUACGAGAU	-3 ± 0.15	-1.54 ± 0.12
AUGCAGCAAUAUUACGAUCA	-0.908 ± 0.14	-0.711 ± 0.14
AUGCAGCAAUAUUACGAUUU	-0.306 ± 0.058	-0.153 ± 0.074
AUGCAGCAAUAUUACGCAGU	-3.23 ± 0.16	-1.69 ± 0.12
AUGCAGCAAUAUUACGCCCG	-1.22 ± 0.2	-0.571 ± 0.29
AUGCAGCAAUAUUACGCCGC	-0.963 ± 0.28	
AUGCAGCAAUAUUACGCGUG	-3.92 ± 0.17	-2.59 ± 0.18
AUGCAGCAAUAUUACGCUCC	-2.02 ± 0.29	0.0573 ± 0.36
AUGCAGCAAUAUUACGCUGA	-2.82 ± 0.19	-1.35 ± 0.13
AUGCAGCAAUAUUACGCUUC	-4.78 ± 0.34	-3.07 ± 0.34
AUGCAGCAAUAUUACGGAUC	-2.52 ± 0.15	-2.7 ± 0.14
AUGCAGCAAUAUUACGGAUG	-4.6 ± 0.29	-1.08 ± 0.13
AUGCAGCAAUAUUACGGCAC	-1.72 ± 0.25	-1.29 ± 0.26
AUGCAGCAAUAUUACGGCCU	0.794 ± 0.13	0.0607 ± 0.16

Sequence	self-splicing fitness (ln) (30 °C)	self-splicing fitness (ln) (37 °C)
AUGCAGCAAUAUUACGGUCG	-1.41 ± 0.11	-0.972 ± 0.14
AUGCAGCAAUAUUACGGUGC	-3.79 ± 0.11	-3.02 ± 0.13
AUGCAGCAAUAUUACGUACG	-2.15 ± 0.1	-0.573 ± 0.12
AUGCAGCAAUAUUACGUAGA	-1.71 ± 0.079	-1.09 ± 0.1
AUGCAGCAAUAUUACGUCCA	-1.72 ± 0.11	-0.786 ± 0.11
AUGCAGCAAUAUUACGUCCC	-1.53 ± 0.42	
AUGCAGCAAUAUUACGUCUG	-3.64 ± 0.35	-0.405 ± 0.16
AUGCAGCAAUAUUACGUGAC	-3.3 ± 0.21	-2.08 ± 0.16
AUGCAGCAAUAUUACGUGCU	-2.52 ± 0.1	-1.9 ± 0.098
AUGGAGCAAUAUUACGAAAG	-2.94 ± 0.24	-2.11 ± 0.32
AUGGAGCAAUAUUACGAACU	-1.95 ± 0.28	-1.45 ± 0.24
AUGGAGCAAUAUUACGAGCU	-3.12 ± 0.27	-2.17 ± 0.37
AUGGAGCAAUAUUACGAGGC	-3.37 ± 0.34	-2.44 ± 0.23
AUGGAGCAAUAUUACGAUAC		-1.71 ± 0.48
AUGGAGCAAUAUUACGAUUG	-2.3 ± 0.25	-3.12 ± 0.33
AUGGAGCAAUAUUACGAUUU	-1.08 ± 0.12	-1.6 ± 0.16
AUGGAGCAAUAUUACGCACU	-0.628 ± 0.14	-0.159 ± 0.18
AUGGAGCAAUAUUACGCAUA	-1.53 ± 0.42	-1.29 ± 0.23
AUGGAGCAAUAUUACGCCAA	-1.45 ± 0.44	-1.03 ± 0.38
AUGGAGCAAUAUUACGCGAU	-2.66 ± 0.49	-1.82 ± 0.4
AUGGAGCAAUAUUACGCGUA	-2.62 ± 0.44	-2.09 ± 0.31
AUGGAGCAAUAUUACGCUAA	-3.13 ± 0.45	-1.32 ± 0.45
AUGGAGCAAUAUUACGCUAG		-1.66 ± 0.25
AUGGAGCAAUAUUACGCUUC		-1.28 ± 0.32
AUGGAGCAAUAUUACGGAAA	-3.4 ± 0.37	-2.35 ± 0.29

Sequence	self-splicing fitness (ln) (30 °C)	self-splicing fitness (ln) (37 °C)
AUGGAGCAAUAUUACGGCAG	-3.04 ± 0.34	-1.73 ± 0.5
AUGGAGCAAUAUUACGGCCG	-1.27 ± 0.11	-0.481 ± 0.19
AUGGAGCAAUAUUACGGCUA	-0.572 ± 0.23	-0.853 ± 0.26
AUGGAGCAAUAUUACGGGAU	-3.03 ± 0.22	-0.546 ± 0.19
AUGGAGCAAUAUUACGGUCU	-1.54 ± 0.14	-2.04 ± 0.21
AUGGAGCAAUAUUACGUCGC	-2.11 ± 0.47	-1.78 ± 0.48
AUGGAGCAAUAUUACGUGAC	-1.88 ± 0.22	-2.11 ± 0.28
AUGGAGCAAUAUUACGUGAU	-2.73 ± 0.088	-0.769 ± 0.08
AUGGAGCAAUAUUACGUGUC	-4.57 ± 0.46	-2.71 ± 0.28
AUGGAGCAAUAUUACGUUCC	-2.13 ± 0.33	
AUGUAGCAAUAUUACGAACA	-0.529 ± 0.14	0.476 ± 0.15
AUGUAGCAAUAUUACGACGA	-0.828 ± 0.11	0.039 ± 0.14
AUGUAGCAAUAUUACGACGG	-2.09 ± 0.18	-1.5 ± 0.17
AUGUAGCAAUAUUACGAGUU	-1.68 ± 0.11	-0.948 ± 0.11
AUGUAGCAAUAUUACGAUGG	-3.4 ± 0.25	-2.26 ± 0.26
AUGUAGCAAUAUUACGAUUA	-0.6 ± 0.14	0.00536 ± 0.13
AUGUAGCAAUAUUACGCCUC	-2.83 ± 0.41	-1.61 ± 0.32
AUGUAGCAAUAUUACGCGAA	-0.976 ± 0.088	-1.04 ± 0.13
AUGUAGCAAUAUUACGGCUU	0.168 ± 0.095	0.71 ± 0.12
AUGUAGCAAUAUUACGGGGU	-2.77 ± 0.23	-3.12 ± 0.3
AUGUAGCAAUAUUACGGUCU	-0.562 ± 0.096	-0.014 ± 0.1
AUGUAGCAAUAUUACGUAUU	-3.48 ± 0.21	-1.44 ± 0.16
AUGUAGCAAUAUUACGUCGA	-3.98 ± 0.26	-2.06 ± 0.18
AUGUAGCAAUAUUACGUCGC		-2.35 ± 0.46
AUUAAGCAAUAUUACGACGC	-0.389 ± 0.11	0.175 ± 0.14

Sequence	self-splicing fitness (ln) (30 °C)	self-splicing fitness (ln) (37 °C)
AUUAAGCAAUAUUACGAGCC		-1.69 ± 0.28
AUUAAGCAAUAUUACGAUAU	-1.2 ± 0.081	-0.415 ± 0.096
AUUAAGCAAUAUUACGAUCU	0.226 ± 0.12	-0.0178 ± 0.16
AUUAAGCAAUAUUACGCAAG	-1.32 ± 0.14	-1.27 ± 0.16
AUUAAGCAAUAUUACGCAGC	-3.06 ± 0.22	-2.72 ± 0.39
AUUAAGCAAUAUUACGCCAG	-2.09 ± 0.15	-1.51 ± 0.22
AUUAAGCAAUAUUACGCCGA	-1.23 ± 0.26	0.0906 ± 0.26
AUUAAGCAAUAUUACGCCGU	-0.62 ± 0.1	-0.369 ± 0.14
AUUAAGCAAUAUUACGGAGU	-1.69 ± 0.14	-0.962 ± 0.15
AUUAAGCAAUAUUACGGCAA	-0.363 ± 0.12	0.438 ± 0.15
AUUAAGCAAUAUUACGGCAG	-1 ± 0.11	0.0222 ± 0.13
AUUAAGCAAUAUUACGGCGC	-0.47 ± 0.15	0.103 ± 0.17
AUUAAGCAAUAUUACGGGAC	-3.35 ± 0.22	-0.882 ± 0.17
AUUAAGCAAUAUUACGGGCA	-0.791 ± 0.12	-0.507 ± 0.12
AUUAAGCAAUAUUACGUACA	-1.2 ± 0.1	-0.1 ± 0.13
AUUAAGCAAUAUUACGUAGC	-4.67 ± 0.45	-1.84 ± 0.22
AUUAAGCAAUAUUACGUAUG	-2.74 ± 0.25	-1.47 ± 0.21
AUUAAGCAAUAUUACGUAUU	-2.15 ± 0.13	-1.85 ± 0.16
AUUAAGCAAUAUUACGUCCC	-0.338 ± 0.18	0.486 ± 0.23
AUUAAGCAAUAUUACGUCUU	-0.854 ± 0.091	-0.387 ± 0.11
AUUAAGCAAUAUUACGUGCG	-0.862 ± 0.091	0.0786 ± 0.13
AUUAAGCAAUAUUACGUGUA	-2.57 ± 0.14	-1.66 ± 0.13
